Substrate in the data set: Cc1cn([C@H]2C[C@H](O)[C@@H](COP(=O)(O)OP(=O)(O)O[C@H]3O[C@@H](C)[C@H](O)[C@@H](O)[C@H]3O)O2)c(=O)[nH]c1=O
Kind of data set: anti-rhamnosylarginine Western blot, band intensity, Michaelis-Menten fit. The following applies: 2.5 μM unmodified EF-P of P. putida as acceptor, 0.1 μM EarP, 100 mM sodium phosphate pH 7.6, 30 °C, 20 s, commercial TDP-Rha. Type of data set: biochemical, Pseudomonas putida.

By Km is commonly meant the concentration of substrate that gives half-maximal velocity.

B1: EarPPpu (Pseudomonas putida KT2440) (protein)
chain: MKATWDIFCSVVDNYGDIGVTWRLARQLVAEHGLAVRLWVDDLNAFTPMCPGADATAAQQWQHGVDVRHWPAAWLPVAPADVVIGAFACQLPAAYVEAMRARPQPPLWLNLEYLSAEDWVEGCHGLPSPQPNGLRKVFFFPGFTDKTGGLLREGSLLARRDGFQQSAEARRAFLQGLGVDLVPGALLISLFAYENPQLGNWLDALATADQPCHLLVPQGRVVAGLSQWLGEGPLHVGDVRTRGALTVQVLPFVSQDDFDRLLWSCDFNAVRGEDSFVRAQWAGQPMLWHIYVQDENAHWEKLEAFLAHYRCGLSDDADAALLGLWRAWNMDFDMGQAWRAARQHWPELQQHARLWGARQAAQPDLATALVHFYRNSL
notes: C-terminal His6 tag kept; pBAD33-earPPpu, E. coli LMG194 host, Ni-NTA purified; GT-B fold, GT104 family
For B1, the Km worked out at 5 µM.
